In patent US20200405832A1 (MINERVA BIOTECHNOLOGIES, published 2020):

How the values were obtained:
[1] = target: T1, PSMGFR peptide (Primary Sequence of the MUC1 Growth Factor Receptor); assay: binding assay on peptide
T1 construct: 45-residue peptide from the extracellular domain of cleaved MUC1 (MUC1*); also called MUC1* peptide; MUC1* extra cellular domain peptide
T1 peptide: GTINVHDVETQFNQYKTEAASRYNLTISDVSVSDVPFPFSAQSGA

NME7-AB = target: T2, NME7-AB (UniProt Q9Y5B8 92-376); assay: binding assay on peptide
T2 sequence (looked up): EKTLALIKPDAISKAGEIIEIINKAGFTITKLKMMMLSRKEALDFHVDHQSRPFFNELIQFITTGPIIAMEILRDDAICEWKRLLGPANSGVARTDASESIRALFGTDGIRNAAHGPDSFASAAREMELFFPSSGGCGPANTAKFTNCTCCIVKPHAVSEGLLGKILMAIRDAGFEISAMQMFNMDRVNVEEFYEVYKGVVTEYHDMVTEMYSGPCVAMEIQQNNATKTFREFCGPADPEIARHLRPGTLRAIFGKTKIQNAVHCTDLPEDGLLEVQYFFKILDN

dimeric NME1 = target: T3, dimeric NME1 (human, UniProt P15531 1-152, limits assumed); assay: binding assay on peptide
T3 construct: The construct used is not described; also called NM23-H1 dimers; dimeric NM23-H1
T3 sequence (P15531 whole entry): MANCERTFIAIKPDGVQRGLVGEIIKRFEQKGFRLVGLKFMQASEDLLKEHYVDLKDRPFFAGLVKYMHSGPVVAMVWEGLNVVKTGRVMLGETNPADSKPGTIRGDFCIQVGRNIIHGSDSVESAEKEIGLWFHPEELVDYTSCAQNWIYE

[2] = target: T1, PSMGFR peptide (Primary Sequence of the …); assay: binding to peptide; assay not described

B1: mouse monoclonal antibody MN-C2 (antibody, V domains shown)
VH: EVQLEESGGGLVKPGGSLKLSCAASGFTFSGYAMSWVRQTPEKRLEWVATISSGGTYIYYPDSVKGRFTISRDNAKNTLYLQMSSLRSEDTAMYYCARLGGDNYYEYFDVWGAGTTVTVSS
VL: DIVITQSTASLGVSLGQRATISCRASKSVSTSGYSYMHWYQQRPGQPPKLLIYLASNLESGVPARFSGSGSGTDFTLNIHPVEEEDAATYYCQHSRELPFTFGGGTKLEIKR
notes: The printed entries run a few residues into the constant region; also called Min-C2
Question: Does B1 bind [1]?
Answer: binds

Question: Does GTINVHDVETQFNQYKTEAASRYNLTISDVSVSDV (also called C-10 PSMGFR) [PSMGFR peptide lacking the 10 C-terminal amino acids] bind (NME7-AB)?
Answer: no binding

Question: Does GTINVHDVETQFNQYKTEAASRYNLTISDVSVSDV (also called C-10 PSMGFR) [PSMGFR peptide lacking the 10 C-terminal amino acids] bind (dimeric NME1)?
Answer: no binding

B2: mouse monoclonal antibody MN-E6 (antibody, V domains shown)
VH: EVKVVESGGDLVKPGGSLKLSCVVSGFTFSRYGMSWVRQTPGKRLEWVATISGGGTYIYYPDSVKGRFTISRDNAKNTLYLQMSSLKSEDTAMYHCTRDNYGRNYDYGMDYWGQGTSVTVSS
VL: QIVLTQSPAIMSASPGEEVTLTCSATSSVSYIHWFQQRPGTSPKLWIYSTSNLASGVPVRFSGSGYGTSYSLTISRMEAEDAATYYCQQRSSSPFTFGSGTKLEIK
notes: also called Min-E6
Question: Does B2 bind [1]?
Answer: binds

B3: mouse monoclonal antibody MN-C3 (antibody, V domains shown)
VH: QVQLQQSGPELVRPGVSVKISCKGSGYRFTDYAMNWVKQSHAKSLEWIGVISTFSGNTNFNQKFKGKATMTVDKSSSTAYMELARLTSEDSAMYYCARSDYYGPYFDYWGQGTTLTVSS
VL: DVLMTQTPLSLPVSLGDQASISCRSSQTIVHSNGNTYLEWYLQKPGQSPKLLIYKVSNRFSGVPDRFSGSGSGTDFTLKINRVEAEDLGVYYCFQGSHVPFTFGSGTKLEIK
notes: also called Min-C3
Question: Does B3 bind [2]?
Answer: binds
